In PMC9482650, “Quantitative fragmentomics allow affinity mapping of interactomes” (Nature Communications, 2022):

T1: MPP6, Q9NZW5
T1 sequence (Q9NZW5 125-219, limits assumed, looked up): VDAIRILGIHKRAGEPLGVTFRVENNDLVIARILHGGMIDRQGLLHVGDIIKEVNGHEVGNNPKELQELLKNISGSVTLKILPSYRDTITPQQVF

T2: RADIL, Q96JH8
T2 sequence (Q96JH8 971-1071, limits assumed, looked up): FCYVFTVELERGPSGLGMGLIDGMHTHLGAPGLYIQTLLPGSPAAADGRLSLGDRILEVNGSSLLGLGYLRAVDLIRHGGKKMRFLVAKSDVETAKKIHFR

T3: DLG3_1, Q92796
T3 sequence (Q92796 125-227, limits assumed, looked up): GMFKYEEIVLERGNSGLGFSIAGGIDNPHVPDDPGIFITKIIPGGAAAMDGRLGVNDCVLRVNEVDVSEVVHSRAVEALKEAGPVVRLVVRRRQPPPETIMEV

T4: DLG3_2, Q92796
T4 sequence (Q92796 221-321, limits assumed, looked up): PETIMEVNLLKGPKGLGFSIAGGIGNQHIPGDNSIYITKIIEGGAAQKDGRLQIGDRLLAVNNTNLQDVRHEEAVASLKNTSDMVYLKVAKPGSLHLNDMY

T5: ARHGEF11, O15085
T5 sequence (O15085 42-136, limits assumed, looked up): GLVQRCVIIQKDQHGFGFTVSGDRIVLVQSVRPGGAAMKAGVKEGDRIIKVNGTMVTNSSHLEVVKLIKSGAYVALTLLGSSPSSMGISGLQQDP

T6: LIN7A, O14910
T6 sequence (O14910 103-200, limits assumed, looked up): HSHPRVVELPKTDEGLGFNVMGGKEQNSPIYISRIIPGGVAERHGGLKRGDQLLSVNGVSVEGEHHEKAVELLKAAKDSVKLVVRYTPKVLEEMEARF

T7: GRIP1_5, Q9Y3R0
T7 sequence (Q9Y3R0 568-668, limits assumed, looked up): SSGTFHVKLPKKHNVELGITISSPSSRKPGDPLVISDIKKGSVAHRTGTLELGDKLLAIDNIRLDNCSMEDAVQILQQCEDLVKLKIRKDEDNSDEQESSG

T8: SHANK1, Q9Y566
T8 sequence (Q9Y566 658-767, limits assumed, looked up): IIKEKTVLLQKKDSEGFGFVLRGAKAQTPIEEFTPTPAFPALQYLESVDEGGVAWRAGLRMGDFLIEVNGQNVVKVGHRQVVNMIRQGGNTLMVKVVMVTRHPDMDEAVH

T9: SIPA1L2, Q9P2F8
T9 sequence (Q9P2F8 945-1036, limits assumed, looked up): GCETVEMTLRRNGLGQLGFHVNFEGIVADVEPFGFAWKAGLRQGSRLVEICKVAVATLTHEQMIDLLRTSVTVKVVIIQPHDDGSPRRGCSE


target: DLG4_2, P78352; assay: holdup assay; set-up: key: below the threshold = too weak to quantify, mostly under pKd 3.1 to 4; details: plain residues with an end cap or a label only (N-terminal biotin on a linker: ado-ado)
Sequence (P78352 155-259): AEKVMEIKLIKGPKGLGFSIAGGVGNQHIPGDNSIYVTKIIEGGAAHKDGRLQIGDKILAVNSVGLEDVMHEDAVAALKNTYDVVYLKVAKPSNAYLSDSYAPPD

Row | Binder | pKd
1 | LPHPHSTTRV [NLGN2, Q8NFZ4] | 3.86

target: GRASP, Q7Z6J2; assay: holdup assay; set-up: key: below the threshold = too weak to quantify, mostly under pKd 3.1 to 4; details: plain residues with an end cap or a label only (N-terminal biotin on a linker: ado-ado)
Sequence (Q7Z6J2 96-193): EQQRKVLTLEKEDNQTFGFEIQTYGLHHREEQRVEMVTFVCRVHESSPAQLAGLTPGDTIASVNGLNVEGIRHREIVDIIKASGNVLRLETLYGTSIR

Row | Binder | pKd
2 | LPHPHSTTRV [NLGN2, Q8NFZ4] | 4.18

target: T1, MPP6, Q9NZW5; assay: holdup assay; set-up: key: below the threshold = too weak to quantify, mostly under pKd 3.1 to 4; details: plain residues with an end cap or a label only (N-terminal biotin on a linker: ado-ado)

Row | Binder | pKd
3 | LPHPHSTTRV [NLGN2, Q8NFZ4] | below the threshold

target: SCRIB_2, Q14160; assay: holdup assay; set-up: key: below the threshold = too weak to quantify, mostly under pKd 3.1 to 4; details: plain residues with an end cap or a label only (N-terminal biotin on a linker: ado-ado)
Sequence (Q14160 857-960): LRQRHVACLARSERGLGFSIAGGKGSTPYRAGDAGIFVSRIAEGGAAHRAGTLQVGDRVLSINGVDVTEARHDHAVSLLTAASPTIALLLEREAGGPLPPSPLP

Row | Binder | pKd
4 | LPHPHSTTRV [NLGN2, Q8NFZ4] | below the threshold

target: IL16_1, Q14005; assay: holdup assay; set-up: key: below the threshold = too weak to quantify, mostly under pKd 3.1 to 4; details: plain residues with an end cap or a label only (N-terminal biotin on a linker: ado-ado)
Sequence (Q14005 210-306): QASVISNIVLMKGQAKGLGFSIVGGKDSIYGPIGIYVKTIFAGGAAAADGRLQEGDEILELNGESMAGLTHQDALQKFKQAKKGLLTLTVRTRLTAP

Row | Binder | pKd
5 | LPHPHSTTRV [NLGN2, Q8NFZ4] | below the threshold

target: T2, RADIL, Q96JH8; assay: holdup assay; set-up: key: below the threshold = too weak to quantify, mostly under pKd 3.1 to 4; details: plain residues with an end cap or a label only (N-terminal biotin on a linker: ado-ado)

Row | Binder | pKd
6 | LPHPHSTTRV [NLGN2, Q8NFZ4] | 3.87

target: T3, DLG3_1, Q92796; assay: holdup assay; set-up: key: below the threshold = too weak to quantify, mostly under pKd 3.1 to 4; details: plain residues with an end cap or a label only (N-terminal biotin on a linker: ado-ado)

Row | Binder | pKd
7 | LPHPHSTTRV [NLGN2, Q8NFZ4] | below the threshold

target: T4, DLG3_2, Q92796; assay: holdup assay; set-up: key: below the threshold = too weak to quantify, mostly under pKd 3.1 to 4; details: plain residues with an end cap or a label only (N-terminal biotin on a linker: ado-ado)

Row | Binder | pKd
8 | LPHPHSTTRV [NLGN2, Q8NFZ4] | 3.96

target: SCRIB_3, Q14160; assay: holdup assay; set-up: key: below the threshold = too weak to quantify, mostly under pKd 3.1 to 4; details: plain residues with an end cap or a label only (N-terminal biotin on a linker: ado-ado)
Sequence (Q14160 999-1103): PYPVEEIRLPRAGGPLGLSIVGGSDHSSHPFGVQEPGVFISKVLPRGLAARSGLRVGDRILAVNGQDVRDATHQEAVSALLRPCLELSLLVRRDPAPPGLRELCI

Row | Binder | pKd
9 | LPHPHSTTRV [NLGN2, Q8NFZ4] | below the threshold

target: GOPC, Q9HD26; assay: holdup assay; set-up: key: below the threshold = too weak to quantify, mostly under pKd 3.1 to 4; details: plain residues with an end cap or a label only (N-terminal biotin on a linker: ado-ado)

Row | Binder | pKd
10 | LPHPHSTTRV [NLGN2, Q8NFZ4] | 4.28

target: MAGI2_2, Q86UL8; assay: holdup assay; set-up: key: below the threshold = too weak to quantify, mostly under pKd 3.1 to 4; details: plain residues with an end cap or a label only (N-terminal biotin on a linker: ado-ado)
Sequence (Q86UL8 410-522): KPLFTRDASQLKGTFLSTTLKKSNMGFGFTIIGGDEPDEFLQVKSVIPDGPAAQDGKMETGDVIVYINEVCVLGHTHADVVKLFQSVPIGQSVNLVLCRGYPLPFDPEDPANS

Row | Binder | pKd
11 | LPHPHSTTRV [NLGN2, Q8NFZ4] | 4.93

target: DLG1_1, Q12959; assay: holdup assay; set-up: key: below the threshold = too weak to quantify, mostly under pKd 3.1 to 4; details: plain residues with an end cap or a label only (N-terminal biotin on a linker: ado-ado)

Row | Binder | pKd
12 | LPHPHSTTRV [NLGN2, Q8NFZ4] | 3.78

target: LDB3, O75112; assay: holdup assay; set-up: key: below the threshold = too weak to quantify, mostly under pKd 3.1 to 4; details: plain residues with an end cap or a label only (N-terminal biotin on a linker: ado-ado)
Sequence (O75112 1-94): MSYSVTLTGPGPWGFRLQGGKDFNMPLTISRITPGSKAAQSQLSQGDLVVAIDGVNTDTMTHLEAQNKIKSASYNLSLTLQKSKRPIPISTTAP

Row | Binder | pKd
13 | LPHPHSTTRV [NLGN2, Q8NFZ4] | below the threshold

target: T5, ARHGEF11, O15085; assay: holdup assay; set-up: key: below the threshold = too weak to quantify, mostly under pKd 3.1 to 4; details: plain residues with an end cap or a label only (N-terminal biotin on a linker: ado-ado)

Row | Binder | pKd
14 | LPHPHSTTRV [NLGN2, Q8NFZ4] | 3.96

target: FRMPD3, Q5JV73; assay: holdup assay; set-up: key: below the threshold = too weak to quantify, mostly under pKd 3.1 to 4; details: plain residues with an end cap or a label only (N-terminal biotin on a linker: ado-ado)
Sequence (Q5JV73 12-100): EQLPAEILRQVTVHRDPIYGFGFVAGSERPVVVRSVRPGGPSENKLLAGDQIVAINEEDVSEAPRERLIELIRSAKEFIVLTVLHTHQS

Row | Binder | pKd
15 | LPHPHSTTRV [NLGN2, Q8NFZ4] | below the threshold

target: DLG4_3, P78352; assay: holdup assay; set-up: key: below the threshold = too weak to quantify, mostly under pKd 3.1 to 4; details: plain residues with an end cap or a label only (N-terminal biotin on a linker: ado-ado)
Sequence (P78352 306-403): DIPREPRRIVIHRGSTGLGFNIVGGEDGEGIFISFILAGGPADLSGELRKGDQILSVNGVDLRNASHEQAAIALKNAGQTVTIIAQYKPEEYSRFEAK

Row | Binder | pKd
16 | LPHPHSTTRV [NLGN2, Q8NFZ4] | 3.82

target: MAGI3_2, Q5TCQ9; assay: holdup assay; set-up: key: below the threshold = too weak to quantify, mostly under pKd 3.1 to 4; details: plain residues with an end cap or a label only (N-terminal biotin on a linker: ado-ado)
Sequence (Q5TCQ9 398-503): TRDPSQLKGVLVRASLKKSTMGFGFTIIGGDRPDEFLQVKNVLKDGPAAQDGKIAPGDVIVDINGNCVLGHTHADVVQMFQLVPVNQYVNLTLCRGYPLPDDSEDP

Row | Binder | pKd
17 | LPHPHSTTRV [NLGN2, Q8NFZ4] | 5.12

target: DLG1_3, Q12959; assay: holdup assay; set-up: key: below the threshold = too weak to quantify, mostly under pKd 3.1 to 4; details: plain residues with an end cap or a label only (N-terminal biotin on a linker: ado-ado)

Row | Binder | pKd
18 | LPHPHSTTRV [NLGN2, Q8NFZ4] | 4.13

target: TJP1_2, Q07157; assay: holdup assay; set-up: key: below the threshold = too weak to quantify, mostly under pKd 3.1 to 4; details: plain residues with an end cap or a label only (N-terminal biotin on a linker: ado-ado)
Sequence (Q07157 181-274): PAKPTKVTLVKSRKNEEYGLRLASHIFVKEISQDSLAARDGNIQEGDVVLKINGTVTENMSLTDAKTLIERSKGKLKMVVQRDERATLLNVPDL

Row | Binder | pKd
19 | LPHPHSTTRV [NLGN2, Q8NFZ4] | below the threshold

target: AHNAK1, Q09666; assay: holdup assay; set-up: key: below the threshold = too weak to quantify, mostly under pKd 3.1 to 4; details: plain residues with an end cap or a label only (N-terminal biotin on a linker: ado-ado)
Sequence (Q09666 4-100): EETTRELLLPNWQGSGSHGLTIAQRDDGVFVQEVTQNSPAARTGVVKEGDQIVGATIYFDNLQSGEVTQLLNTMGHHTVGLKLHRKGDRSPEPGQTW

Row | Binder | pKd
20 | LPHPHSTTRV [NLGN2, Q8NFZ4] | below the threshold

target: GORASP2, Q9H8Y8; assay: holdup assay; set-up: key: below the threshold = too weak to quantify, mostly under pKd 3.1 to 4; details: plain residues with an end cap or a label only (N-terminal biotin on a linker: ado-ado)

Row | Binder | pKd
21 | LPHPHSTTRV [NLGN2, Q8NFZ4] | 3.92

target: PDLIM1, O00151; assay: holdup assay; set-up: key: below the threshold = too weak to quantify, mostly under pKd 3.1 to 4; details: plain residues with an end cap or a label only (N-terminal biotin on a linker: ado-ado)
Sequence (O00151 1-87): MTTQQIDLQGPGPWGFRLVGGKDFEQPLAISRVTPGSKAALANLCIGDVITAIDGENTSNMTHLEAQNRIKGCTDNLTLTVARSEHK

Row | Binder | pKd
22 | LPHPHSTTRV [NLGN2, Q8NFZ4] | below the threshold

target: T6, LIN7A, O14910; assay: holdup assay; set-up: key: below the threshold = too weak to quantify, mostly under pKd 3.1 to 4; details: plain residues with an end cap or a label only (N-terminal biotin on a linker: ado-ado)

Row | Binder | pKd
23 | LPHPHSTTRV [NLGN2, Q8NFZ4] | below the threshold

target: T7, GRIP1_5, Q9Y3R0; assay: holdup assay; set-up: key: below the threshold = too weak to quantify, mostly under pKd 3.1 to 4; details: plain residues with an end cap or a label only (N-terminal biotin on a linker: ado-ado)

Row | Binder | pKd
24 | LPHPHSTTRV [NLGN2, Q8NFZ4] | below the threshold

target: T8, SHANK1, Q9Y566; assay: holdup assay; set-up: key: below the threshold = too weak to quantify, mostly under pKd 3.1 to 4; details: plain residues with an end cap or a label only (N-terminal biotin on a linker: ado-ado)

Row | Binder | pKd
25 | LPHPHSTTRV [NLGN2, Q8NFZ4] | 4.81

target: MAGI1_2, Q96QZ7; assay: holdup assay; set-up: key: below the threshold = too weak to quantify, mostly under pKd 3.1 to 4; details: plain residues with an end cap or a label only (N-terminal biotin on a linker: ado-ado)
Sequence (Q96QZ7 456-580): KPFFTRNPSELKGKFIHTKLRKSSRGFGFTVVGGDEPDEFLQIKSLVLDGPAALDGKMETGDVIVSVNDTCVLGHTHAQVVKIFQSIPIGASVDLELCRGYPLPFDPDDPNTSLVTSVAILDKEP

Row | Binder | pKd
26 | LPHPHSTTRV [NLGN2, Q8NFZ4] | 4.13

target: T9, SIPA1L2, Q9P2F8; assay: holdup assay; set-up: key: below the threshold = too weak to quantify, mostly under pKd 3.1 to 4; details: plain residues with an end cap or a label only (N-terminal biotin on a linker: ado-ado)

Row | Binder | pKd
27 | LPHPHSTTRV [NLGN2, Q8NFZ4] | below the threshold

target: TJP2_1, Q9UDY2; assay: holdup assay; set-up: key: below the threshold = too weak to quantify, mostly under pKd 3.1 to 4; details: plain residues with an end cap or a label only (N-terminal biotin on a linker: ado-ado)
Sequence (Q9UDY2 24-128): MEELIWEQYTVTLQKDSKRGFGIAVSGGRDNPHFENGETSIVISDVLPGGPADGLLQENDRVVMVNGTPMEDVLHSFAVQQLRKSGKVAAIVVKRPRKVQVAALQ

Row | Binder | pKd
28 | LPHPHSTTRV [NLGN2, Q8NFZ4] | 3.97
